Assay results from article PMC9403556 (STAR Protocols, 2022).

Molecular target: T1, human eIF5-mimic protein 1 (h5MP1), wild type, untagged (human, UniProt Q9Y6E2 1-419)
T1 sequence (looked up): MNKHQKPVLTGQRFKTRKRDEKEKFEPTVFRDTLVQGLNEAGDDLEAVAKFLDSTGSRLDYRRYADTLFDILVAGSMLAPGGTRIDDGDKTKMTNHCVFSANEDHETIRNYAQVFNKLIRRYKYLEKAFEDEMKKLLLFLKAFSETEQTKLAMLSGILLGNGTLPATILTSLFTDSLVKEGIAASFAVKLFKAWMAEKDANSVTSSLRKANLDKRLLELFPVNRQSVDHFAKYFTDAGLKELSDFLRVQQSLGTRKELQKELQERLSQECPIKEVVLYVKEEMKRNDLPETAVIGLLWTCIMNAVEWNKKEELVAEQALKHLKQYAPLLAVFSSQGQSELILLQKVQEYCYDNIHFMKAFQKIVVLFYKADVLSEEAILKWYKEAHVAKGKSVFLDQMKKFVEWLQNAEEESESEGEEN
Assay: ITC

B1: heIF2β_(53-136), GB1- and His-tags removed (domain or fragment, human, UniProt P20042 53-136, looked up)
chain: DLEADEEDTRKKDASDDLDDLNFFNQKKKKKKTKKIFDIDEAEEGVKDLKIESDVQEPTEPEDDLDIMLGNKKKKKKNVKFPDE
Binder B1 has a Kd of 5 µM.
